Reference: patent US20190062399A1

Target: B7-1Ig (CD80-Ig fusion protein) (UniProt P33681)
Assay: SPR kinetics (Biacore), 75-200 nM analyte over B7-1Ig chip (694 RU)

Sequence of Protein A eluate of the HIC cleaning peak (mixture of all CTLA4-Ig species) (chain): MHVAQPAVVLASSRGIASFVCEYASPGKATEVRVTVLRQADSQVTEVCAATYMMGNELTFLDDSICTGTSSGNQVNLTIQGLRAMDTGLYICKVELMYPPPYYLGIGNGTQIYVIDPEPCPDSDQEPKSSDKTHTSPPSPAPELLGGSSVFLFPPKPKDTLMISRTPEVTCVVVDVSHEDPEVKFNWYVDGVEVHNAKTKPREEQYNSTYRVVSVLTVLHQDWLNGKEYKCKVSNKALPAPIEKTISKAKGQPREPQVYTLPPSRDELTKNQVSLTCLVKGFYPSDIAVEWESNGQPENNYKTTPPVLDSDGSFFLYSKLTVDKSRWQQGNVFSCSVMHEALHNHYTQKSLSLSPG
Sequence of UniProt P33681 (P33681 35-242 limits assumed): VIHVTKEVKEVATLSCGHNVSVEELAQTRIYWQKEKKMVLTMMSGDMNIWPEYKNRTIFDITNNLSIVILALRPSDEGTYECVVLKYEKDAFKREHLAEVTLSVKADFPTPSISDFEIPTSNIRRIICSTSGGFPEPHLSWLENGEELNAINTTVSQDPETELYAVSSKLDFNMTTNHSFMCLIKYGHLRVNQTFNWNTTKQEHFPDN

“Protein A eluate of the HIC cleaning peak (mixture of all CTLA4-Ig species)” was tested, and the Ka was 3.87e+07 M⁻¹, the Kd was 25.8 nM and the koff was 0.00973 s⁻¹. For the same substance, the kon was 377000 M⁻¹ s⁻¹.
